Laboratory results reported in article PMC9482650, “Quantitative fragmentomics allow affinity mapping of interactomes” (Nature Communications, 2022).

Columns and labels:
Assay in all cases: holdup assay
Design in all cases: key: below the threshold = too weak to quantify, mostly under pKd 3.1 to 4
[1] = biological target: T1, CARD11, Q9BXL7
T1 sequence (Q9BXL7 662-765, limits assumed, looked up): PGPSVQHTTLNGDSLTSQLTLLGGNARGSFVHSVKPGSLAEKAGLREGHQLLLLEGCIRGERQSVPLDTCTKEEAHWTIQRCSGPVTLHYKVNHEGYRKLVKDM

[2] = biological target: T2, DFNB31_2, Q9P202
T2 sequence (Q9P202 274-371, limits assumed, looked up): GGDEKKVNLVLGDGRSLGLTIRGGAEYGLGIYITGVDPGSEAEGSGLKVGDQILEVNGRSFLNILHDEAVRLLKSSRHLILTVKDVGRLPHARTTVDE

[3] = biological target: DLG1_1, Q12959
[4] = biological target: T3, FRMPD1, Q5SYB0
T3 sequence (Q5SYB0 52-145, limits assumed, looked up): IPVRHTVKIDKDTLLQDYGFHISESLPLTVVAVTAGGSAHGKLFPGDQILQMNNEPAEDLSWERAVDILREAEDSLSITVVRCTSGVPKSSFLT

[5] = biological target: FRMPD2_3, Q68DX3
[6] = biological target: GORASP1, Q9BQQ3
[7] = biological target: GRASP, Q7Z6J2
[8] = biological target: GRIP2_3, Q9C0E4
[9] = biological target: IL16_1, Q14005
[10] = biological target: Inadl_2, Q8NI35
[11] = biological target: LAP2, Q96RT1
[12] = biological target: T4, LIN7A, O14910
T4 sequence (O14910 103-200, limits assumed, looked up): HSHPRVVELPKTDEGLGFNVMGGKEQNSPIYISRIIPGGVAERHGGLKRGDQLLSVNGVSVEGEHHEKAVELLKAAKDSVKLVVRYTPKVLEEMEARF

[13] = biological target: LNX1_1, Q8TBB1
[14] = biological target: MAGI1_2, Q96QZ7
[15] = biological target: MAGI2_6, Q86UL8
[16] = biological target: MAGI3_2, Q5TCQ9
[17] = biological target: T5, MPP2, Q14168
T5 sequence (Q14168 180-250, limits assumed, looked up): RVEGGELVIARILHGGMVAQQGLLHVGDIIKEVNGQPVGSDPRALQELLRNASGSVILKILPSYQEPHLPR

[18] = biological target: T6, MPP7, Q5T2T1
T6 sequence (Q5T2T1 134-230, limits assumed, looked up): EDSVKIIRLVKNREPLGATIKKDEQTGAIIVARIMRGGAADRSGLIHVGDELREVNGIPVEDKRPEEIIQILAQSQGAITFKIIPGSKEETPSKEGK

[19] = biological target: NHERF4_2, Q86UT5
[20] = biological target: T7, PCLO, Q9Y6V0
T7 sequence (Q9Y6V0 4491-4600, limits assumed, looked up): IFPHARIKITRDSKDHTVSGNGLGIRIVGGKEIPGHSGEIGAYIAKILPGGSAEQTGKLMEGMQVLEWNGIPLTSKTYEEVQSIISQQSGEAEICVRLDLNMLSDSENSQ

[21] = biological target: PICK1, Q9NRD5
[22] = biological target: T8, RADIL, Q96JH8
T8 sequence (Q96JH8 971-1071, limits assumed, looked up): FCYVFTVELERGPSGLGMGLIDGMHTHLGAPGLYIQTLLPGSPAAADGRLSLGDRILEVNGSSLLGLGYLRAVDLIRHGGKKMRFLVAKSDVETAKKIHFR

[23] = biological target: T9, RAPGEF6, Q8TEU7
T9 sequence (Q8TEU7 525-625, limits assumed, looked up): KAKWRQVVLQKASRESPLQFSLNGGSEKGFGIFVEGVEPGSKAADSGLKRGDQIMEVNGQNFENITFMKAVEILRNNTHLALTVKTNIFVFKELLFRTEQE

[24] = biological target: SCRIB_1, Q14160
[25] = biological target: T10, SNTG2, Q9NY99
T10 sequence (Q9NY99 68-166, limits assumed, looked up): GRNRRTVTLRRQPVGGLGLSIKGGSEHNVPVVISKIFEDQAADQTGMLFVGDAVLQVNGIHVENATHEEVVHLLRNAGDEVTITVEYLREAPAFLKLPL

[26] = biological target: T11, SYNJ2BP, P57105
T11 sequence (P57105 8-110, limits assumed, looked up): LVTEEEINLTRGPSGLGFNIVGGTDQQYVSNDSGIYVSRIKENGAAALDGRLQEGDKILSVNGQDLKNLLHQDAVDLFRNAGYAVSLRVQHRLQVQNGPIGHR

[27] = biological target: TJP2_1, Q9UDY2
[28] = plain residues with an end cap or a label only (N-terminal biotin on a linker: ahx)
[29] = plain residues with an end cap or a label only (N-terminal biotin on a linker: ttds)

Chain of SCRIB_1, Q14160 (Q14160 718-814): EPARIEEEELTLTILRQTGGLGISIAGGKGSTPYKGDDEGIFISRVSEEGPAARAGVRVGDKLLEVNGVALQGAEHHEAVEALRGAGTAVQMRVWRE
Chain of GRIP2_3, Q9C0E4 (Q9C0E4 238-339): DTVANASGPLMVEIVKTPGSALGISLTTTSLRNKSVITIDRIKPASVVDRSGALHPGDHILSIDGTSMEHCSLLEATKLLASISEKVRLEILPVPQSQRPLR
Chain of NHERF4_2, Q86UT5 (Q86UT5 220-308): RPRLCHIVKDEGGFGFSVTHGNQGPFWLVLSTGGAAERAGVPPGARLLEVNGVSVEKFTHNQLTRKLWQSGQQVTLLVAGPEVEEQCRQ
Chain of MAGI2_6, Q86UL8 (Q86UL8 1141-1229): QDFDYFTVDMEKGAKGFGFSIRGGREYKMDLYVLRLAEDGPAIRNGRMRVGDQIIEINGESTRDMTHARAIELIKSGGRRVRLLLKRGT
Chain of TJP2_1, Q9UDY2 (Q9UDY2 24-128): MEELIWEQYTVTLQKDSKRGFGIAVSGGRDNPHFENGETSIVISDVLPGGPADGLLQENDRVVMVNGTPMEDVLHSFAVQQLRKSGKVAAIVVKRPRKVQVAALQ
Chain of FRMPD2_3, Q68DX3 (Q68DX3 1073-1166): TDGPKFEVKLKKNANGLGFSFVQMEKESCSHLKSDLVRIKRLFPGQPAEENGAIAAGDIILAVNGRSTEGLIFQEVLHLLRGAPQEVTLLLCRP
Chain of Inadl_2, Q8NI35 (Q8NI35 238-335): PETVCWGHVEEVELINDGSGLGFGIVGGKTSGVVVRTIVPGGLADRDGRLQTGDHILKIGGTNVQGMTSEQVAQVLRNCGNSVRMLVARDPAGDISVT
Chain of GRASP, Q7Z6J2 (Q7Z6J2 96-193): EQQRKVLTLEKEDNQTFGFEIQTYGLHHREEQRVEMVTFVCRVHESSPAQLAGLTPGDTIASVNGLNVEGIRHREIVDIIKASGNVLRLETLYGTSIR
Chain of IL16_1, Q14005 (Q14005 210-306): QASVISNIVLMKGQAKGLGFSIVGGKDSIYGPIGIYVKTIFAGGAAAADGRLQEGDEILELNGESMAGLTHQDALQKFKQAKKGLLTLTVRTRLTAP
Chain of PICK1, Q9NRD5 (Q9NRD5 17-115): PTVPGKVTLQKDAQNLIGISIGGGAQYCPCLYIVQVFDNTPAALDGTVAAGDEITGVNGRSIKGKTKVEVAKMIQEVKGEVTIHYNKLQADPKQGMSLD
Chain of GORASP1, Q9BQQ3 (Q9BQQ3 1-208): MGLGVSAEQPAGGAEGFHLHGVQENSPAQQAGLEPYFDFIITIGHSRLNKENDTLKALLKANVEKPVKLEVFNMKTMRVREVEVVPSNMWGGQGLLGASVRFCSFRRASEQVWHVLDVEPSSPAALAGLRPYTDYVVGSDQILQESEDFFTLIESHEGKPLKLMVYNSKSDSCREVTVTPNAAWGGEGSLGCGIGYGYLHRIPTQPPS
Chain of MAGI1_2, Q96QZ7 (Q96QZ7 456-580): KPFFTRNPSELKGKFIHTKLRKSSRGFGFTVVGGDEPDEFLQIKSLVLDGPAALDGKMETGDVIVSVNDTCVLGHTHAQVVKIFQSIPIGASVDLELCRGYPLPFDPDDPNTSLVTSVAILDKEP
Chain of LNX1_1, Q8TBB1 (Q8TBB1 261-371): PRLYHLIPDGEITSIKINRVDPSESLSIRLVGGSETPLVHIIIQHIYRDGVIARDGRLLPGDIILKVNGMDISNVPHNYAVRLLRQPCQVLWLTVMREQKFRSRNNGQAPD
Chain of LAP2, Q96RT1 (Q96RT1 other isoform, or with tags, fused parts or gaps): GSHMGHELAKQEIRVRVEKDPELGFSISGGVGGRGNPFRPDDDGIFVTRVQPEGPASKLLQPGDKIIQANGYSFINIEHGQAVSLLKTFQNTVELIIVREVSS
Chain of MAGI3_2, Q5TCQ9 (Q5TCQ9 398-503): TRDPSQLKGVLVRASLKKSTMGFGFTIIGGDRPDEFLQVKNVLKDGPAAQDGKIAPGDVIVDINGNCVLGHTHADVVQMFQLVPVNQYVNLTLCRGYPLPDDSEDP

B1: PDLIM2, Q96JY6 (peptide)
chain: SAPATLSSRA
pKd [1, 28]: below the threshold | pKd [2, 28]: below the threshold | pKd [3, 28]: below the threshold | pKd [4, 28]: below the threshold | pKd [5, 28]: below the threshold | pKd [6, 28]: below the threshold | pKd [7, 28]: below the threshold | pKd [8, 28]: below the threshold | pKd [9, 28]: below the threshold | pKd [10, 28]: below the threshold | pKd [11, 28]: below the threshold | pKd [12, 28]: below the threshold | pKd [13, 28]: 3.67 | pKd [14, 28]: below the threshold | pKd [15, 28]: below the threshold | pKd [16, 28]: below the threshold | pKd [17, 28]: below the threshold | pKd [18, 28]: below the threshold | pKd [19, 28]: below the threshold | pKd [20, 28]: below the threshold | pKd [21, 28]: below the threshold | pKd [22, 28]: below the threshold | pKd [23, 28]: below the threshold | pKd [24, 28]: below the threshold | pKd [25, 28]: below the threshold | pKd [26, 28]: below the threshold | pKd [27, 28]: below the threshold

B2: NET1, Q7Z628 (peptide)
chain: SGGKRKETLV
pKd [1, 29]: below the threshold | pKd [2, 29]: below the threshold | pKd [3, 29]: 5.09 | pKd [4, 29]: below the threshold | pKd [5, 29]: below the threshold | pKd [6, 29]: below the threshold | pKd [7, 29]: below the threshold | pKd [8, 29]: below the threshold | pKd [9, 29]: below the threshold | pKd [10, 29]: below the threshold | pKd [11, 29]: below the threshold | pKd [12, 29]: below the threshold | pKd [13, 29]: below the threshold | pKd [14, 29]: 5.72 | pKd [15, 29]: 3.54 | pKd [16, 29]: 5.92 | pKd [17, 29]: below the threshold | pKd [18, 29]: below the threshold | pKd [19, 29]: below the threshold | pKd [20, 29]: below the threshold | pKd [21, 29]: below the threshold | pKd [22, 29]: 3.82 | pKd [23, 29]: below the threshold | pKd [24, 29]: 4 | pKd [25, 29]: 4.17 | pKd [26, 29]: 5.2 | pKd [27, 29]: 3.8

B3: RAPGEF6, Q8TEU7 (peptide)
chain: ADENEQVSAV
pKd [1, 28]: below the threshold | pKd [2, 28]: below the threshold | pKd [3, 28]: below the threshold | pKd [4, 28]: below the threshold | pKd [5, 28]: below the threshold | pKd [6, 28]: below the threshold | pKd [7, 28]: 4.66 | pKd [8, 28]: below the threshold | pKd [9, 28]: 4.23 | pKd [10, 28]: below the threshold | pKd [11, 28]: below the threshold | pKd [12, 28]: below the threshold | pKd [13, 28]: below the threshold | pKd [14, 28]: 3.83 | pKd [15, 28]: 4.19 | pKd [16, 28]: 3.61 | pKd [17, 28]: below the threshold | pKd [18, 28]: below the threshold | pKd [19, 28]: below the threshold | pKd [20, 28]: below the threshold | pKd [21, 28]: below the threshold | pKd [22, 28]: below the threshold | pKd [23, 28]: below the threshold | pKd [24, 28]: 3.65 | pKd [25, 28]: below the threshold | pKd [26, 28]: 3.74 | pKd [27, 28]: below the threshold

B4: FAT3, Q8TDW7 (peptide)
chain: FVETQHQTQV
pKd [1, 29]: below the threshold | pKd [2, 29]: below the threshold | pKd [3, 29]: 4.32 | pKd [4, 29]: below the threshold | pKd [5, 29]: below the threshold | pKd [6, 29]: below the threshold | pKd [7, 29]: 3.69 | pKd [8, 29]: below the threshold | pKd [9, 29]: below the threshold | pKd [10, 29]: 3.56 | pKd [11, 29]: 3.65 | pKd [12, 29]: below the threshold | pKd [13, 29]: below the threshold | pKd [14, 29]: 3.93 | pKd [15, 29]: 3.77 | pKd [16, 29]: 4.57 | pKd [17, 29]: below the threshold | pKd [18, 29]: below the threshold | pKd [19, 29]: below the threshold | pKd [20, 29]: below the threshold | pKd [21, 29]: below the threshold | pKd [22, 29]: 4.27 | pKd [23, 29]: below the threshold | pKd [24, 29]: below the threshold | pKd [25, 29]: 3.82 | pKd [26, 29]: 4.08 | pKd [27, 29]: below the threshold

B5: HPV33-E6, P06427 (peptide)
chain: SRSRRRETAL
pKd [1, 29]: below the threshold | pKd [2, 29]: 3.55 | pKd [3, 29]: 4.5 | pKd [4, 29]: below the threshold | pKd [5, 29]: below the threshold | pKd [6, 29]: below the threshold | pKd [7, 29]: 3.49 | pKd [8, 29]: below the threshold | pKd [9, 29]: below the threshold | pKd [10, 29]: below the threshold | pKd [11, 29]: below the threshold | pKd [12, 29]: below the threshold | pKd [13, 29]: below the threshold | pKd [14, 29]: 5.67 | pKd [15, 29]: below the threshold | pKd [16, 29]: 5.39 | pKd [17, 29]: below the threshold | pKd [18, 29]: below the threshold | pKd [19, 29]: below the threshold | pKd [20, 29]: below the threshold | pKd [21, 29]: below the threshold | pKd [22, 29]: below the threshold | pKd [23, 29]: below the threshold | pKd [24, 29]: 5.66 | pKd [25, 29]: 4.48 | pKd [26, 29]: 5.3 | pKd [27, 29]: 4.01
